The assay deals with PD-1 on PD-1 reporter Jurkat cells. The experiment in a line: cell-based or functional assay.

In the case of CC-90006 (antibody), the SHP-2 recruitment, Ig-tethered test article, PD-1 reporter Jurkat cells; EC50 turned out to be 2.94 nM and the SHP-2 recruitment, Ig-tethered test article, PD-1 reporter Jurkat cells; EC50 (second experiment) was found to be 2.59 nM.

Values taken from patent US20240301064A1.
